Test results: US10562947B2, “Compositions and methods for preventing or treating diseases, conditions or processes characterized by aberrant fibroblast proliferation and extracellular matrix deposition” (MOERAE MATRIX, INC., priority 2011, dated 2020)

Legend:
Experiment in all cases: Kinase Profiling Assay
Format in all cases: biochemical
Conditions in all cases: 100 μM peptide
NEK6(h) = NEK6(h) (Homo sapiens, UniProt Q9HC98)
Method in brief: (§1)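 Each kinase in a 266-member human panel is assayed, in duplicate, for activity in the presence of MK2 inhibitory peptides to gauge specificity.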

MST3(h) = MST3(h) (Homo sapiens, UniProt Q9Y6E0)
MST3(h), sequence (Q9Y6E0 whole entry): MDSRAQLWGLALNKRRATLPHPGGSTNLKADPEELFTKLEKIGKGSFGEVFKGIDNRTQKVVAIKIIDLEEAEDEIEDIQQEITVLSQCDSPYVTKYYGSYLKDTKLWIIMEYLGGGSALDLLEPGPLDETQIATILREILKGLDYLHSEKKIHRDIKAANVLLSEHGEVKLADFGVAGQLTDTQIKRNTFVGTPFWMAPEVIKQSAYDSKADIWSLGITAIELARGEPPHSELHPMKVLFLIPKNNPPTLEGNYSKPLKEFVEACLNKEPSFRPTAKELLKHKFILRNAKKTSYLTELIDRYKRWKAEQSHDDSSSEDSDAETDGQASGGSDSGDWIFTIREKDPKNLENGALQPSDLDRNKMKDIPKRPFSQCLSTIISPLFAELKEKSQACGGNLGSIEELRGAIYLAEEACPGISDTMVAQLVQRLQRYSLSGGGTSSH
Method in brief: as §1

SGK2(h) = molecular target: T1, SGK2(h) (Homo sapiens, UniProt Q9HBY8)
T1 sequence (Q9HBY8 1-367): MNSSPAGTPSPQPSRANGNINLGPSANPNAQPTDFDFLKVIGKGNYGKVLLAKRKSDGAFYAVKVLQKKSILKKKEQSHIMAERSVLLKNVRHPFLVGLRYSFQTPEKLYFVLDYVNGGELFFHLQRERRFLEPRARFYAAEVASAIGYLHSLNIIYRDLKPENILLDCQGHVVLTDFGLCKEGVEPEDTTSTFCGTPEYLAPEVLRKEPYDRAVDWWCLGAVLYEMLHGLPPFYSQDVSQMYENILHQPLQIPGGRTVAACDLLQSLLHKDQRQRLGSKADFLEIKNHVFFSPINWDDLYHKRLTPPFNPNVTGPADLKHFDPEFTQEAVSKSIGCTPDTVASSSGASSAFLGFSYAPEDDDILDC
Method in brief: as §1

GSK3β(h) = molecular target: T2, GSK3β(h) (Homo sapiens, UniProt P49841)
T2 construct: purchased Millipore
T2 sequence (P49841 whole entry): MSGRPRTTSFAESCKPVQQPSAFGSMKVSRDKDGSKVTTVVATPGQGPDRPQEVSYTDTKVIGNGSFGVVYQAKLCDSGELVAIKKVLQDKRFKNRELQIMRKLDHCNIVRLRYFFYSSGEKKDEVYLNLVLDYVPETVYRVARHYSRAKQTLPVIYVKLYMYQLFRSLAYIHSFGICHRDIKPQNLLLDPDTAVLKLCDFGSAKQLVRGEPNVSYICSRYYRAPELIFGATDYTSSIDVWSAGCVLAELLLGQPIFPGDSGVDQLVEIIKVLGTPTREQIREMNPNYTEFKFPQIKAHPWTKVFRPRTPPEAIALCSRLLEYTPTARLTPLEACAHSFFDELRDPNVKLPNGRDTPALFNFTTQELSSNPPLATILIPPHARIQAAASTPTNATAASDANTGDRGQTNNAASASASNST
Method in brief: as §1

PhKγ2(h) = molecular target: T3, PhKγ2(h) (Homo sapiens, UniProt P15735)
T3 sequence (P15735 1-406): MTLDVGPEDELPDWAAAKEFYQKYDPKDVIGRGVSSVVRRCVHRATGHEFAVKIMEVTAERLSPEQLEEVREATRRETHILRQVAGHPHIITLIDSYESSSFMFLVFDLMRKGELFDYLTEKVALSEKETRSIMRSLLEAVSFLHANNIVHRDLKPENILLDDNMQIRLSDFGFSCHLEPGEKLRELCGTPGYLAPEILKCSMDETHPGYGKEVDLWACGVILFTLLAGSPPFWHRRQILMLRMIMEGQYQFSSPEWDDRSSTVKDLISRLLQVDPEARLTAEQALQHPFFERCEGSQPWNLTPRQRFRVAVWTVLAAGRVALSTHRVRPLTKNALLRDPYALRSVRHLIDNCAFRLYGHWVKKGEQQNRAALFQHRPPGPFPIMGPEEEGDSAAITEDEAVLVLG
Method in brief: as §1

Rse(h) = molecular target: T4, Rse(h) (Homo sapiens, UniProt Q06418)
T4 construct: purchased Millipore (IC50 Profiler Express service)
T4 sequence (Q06418 41-890): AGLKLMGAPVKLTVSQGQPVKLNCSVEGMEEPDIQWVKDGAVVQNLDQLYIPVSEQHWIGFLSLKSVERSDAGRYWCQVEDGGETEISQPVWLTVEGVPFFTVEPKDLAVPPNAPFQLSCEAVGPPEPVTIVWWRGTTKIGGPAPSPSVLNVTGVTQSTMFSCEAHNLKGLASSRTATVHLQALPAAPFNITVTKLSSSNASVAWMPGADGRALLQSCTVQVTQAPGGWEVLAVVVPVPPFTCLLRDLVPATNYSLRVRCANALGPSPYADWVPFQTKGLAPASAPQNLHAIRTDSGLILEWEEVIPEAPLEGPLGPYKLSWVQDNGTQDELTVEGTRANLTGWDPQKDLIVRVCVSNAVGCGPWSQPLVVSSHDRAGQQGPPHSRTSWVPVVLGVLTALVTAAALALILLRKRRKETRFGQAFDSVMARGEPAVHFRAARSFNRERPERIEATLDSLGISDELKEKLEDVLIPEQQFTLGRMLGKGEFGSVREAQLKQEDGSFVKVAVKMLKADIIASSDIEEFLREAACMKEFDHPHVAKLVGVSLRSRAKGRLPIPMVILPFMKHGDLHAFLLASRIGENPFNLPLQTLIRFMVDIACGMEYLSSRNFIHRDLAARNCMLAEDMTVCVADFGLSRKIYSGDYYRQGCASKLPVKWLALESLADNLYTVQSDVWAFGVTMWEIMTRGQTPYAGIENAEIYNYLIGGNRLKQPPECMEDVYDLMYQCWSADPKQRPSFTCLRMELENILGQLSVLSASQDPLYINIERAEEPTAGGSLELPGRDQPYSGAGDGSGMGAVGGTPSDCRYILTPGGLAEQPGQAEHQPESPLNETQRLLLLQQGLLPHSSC
Method in brief: as §1

EGFR(T790M,L858R)(h) = EGFR(T790M,L858R)(h) (Homo sapiens, UniProt P00533, L858R/T790M)
Method in brief: as §1

HIPK2(h) = molecular target: T5, HIPK2(h) (Homo sapiens, UniProt Q9H2X6)
T5 construct: purchased Millipore
T5 sequence (Q9H2X6 whole entry): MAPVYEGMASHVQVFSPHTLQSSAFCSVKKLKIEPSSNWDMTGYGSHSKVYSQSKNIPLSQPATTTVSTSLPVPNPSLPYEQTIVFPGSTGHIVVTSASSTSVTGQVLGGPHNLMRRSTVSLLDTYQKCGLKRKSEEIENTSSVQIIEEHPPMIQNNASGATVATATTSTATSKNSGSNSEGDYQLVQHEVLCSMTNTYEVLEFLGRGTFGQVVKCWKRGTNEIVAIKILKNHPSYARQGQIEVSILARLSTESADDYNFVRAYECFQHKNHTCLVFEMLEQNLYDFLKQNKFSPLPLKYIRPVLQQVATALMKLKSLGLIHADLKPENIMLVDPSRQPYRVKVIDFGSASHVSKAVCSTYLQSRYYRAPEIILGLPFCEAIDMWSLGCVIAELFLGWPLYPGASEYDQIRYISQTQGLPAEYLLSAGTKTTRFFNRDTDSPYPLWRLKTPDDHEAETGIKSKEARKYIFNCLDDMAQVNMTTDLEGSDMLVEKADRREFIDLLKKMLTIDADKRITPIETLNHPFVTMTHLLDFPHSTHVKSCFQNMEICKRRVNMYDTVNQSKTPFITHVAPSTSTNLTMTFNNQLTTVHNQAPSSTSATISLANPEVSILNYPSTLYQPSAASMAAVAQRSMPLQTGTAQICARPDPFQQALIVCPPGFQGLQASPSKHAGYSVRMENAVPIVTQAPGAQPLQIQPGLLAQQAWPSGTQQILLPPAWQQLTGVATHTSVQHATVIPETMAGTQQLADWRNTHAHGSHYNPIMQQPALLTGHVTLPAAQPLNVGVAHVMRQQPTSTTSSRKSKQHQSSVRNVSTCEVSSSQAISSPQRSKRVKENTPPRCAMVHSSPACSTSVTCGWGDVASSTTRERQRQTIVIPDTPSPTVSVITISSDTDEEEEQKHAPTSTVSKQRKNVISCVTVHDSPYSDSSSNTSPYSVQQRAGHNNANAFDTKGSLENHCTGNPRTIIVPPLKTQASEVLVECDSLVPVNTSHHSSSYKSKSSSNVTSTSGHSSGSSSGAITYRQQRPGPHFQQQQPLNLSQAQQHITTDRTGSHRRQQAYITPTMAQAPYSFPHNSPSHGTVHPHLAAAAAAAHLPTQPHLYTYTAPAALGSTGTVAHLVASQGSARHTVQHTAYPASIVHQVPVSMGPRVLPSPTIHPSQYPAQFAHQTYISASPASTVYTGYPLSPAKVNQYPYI
Method in brief: as §1

NEK6(h), sequence (Q9HC98 whole entry): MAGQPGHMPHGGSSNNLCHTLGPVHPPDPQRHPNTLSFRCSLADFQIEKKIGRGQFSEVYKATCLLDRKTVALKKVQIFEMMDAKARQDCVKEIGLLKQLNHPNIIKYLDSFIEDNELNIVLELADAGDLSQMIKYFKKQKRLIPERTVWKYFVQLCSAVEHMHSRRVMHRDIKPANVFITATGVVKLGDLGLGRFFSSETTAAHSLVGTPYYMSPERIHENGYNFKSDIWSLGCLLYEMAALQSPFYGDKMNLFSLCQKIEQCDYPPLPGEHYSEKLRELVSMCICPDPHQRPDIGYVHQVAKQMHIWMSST

Sequence | NEK6(h) % activity (NEK6(h)) [%] | MST3(h) % activity (MST3(h)) [%] | SGK2(h) % activity (SGK2(h)) [%] | GSK3β(h) % activity (GSK3β(h)) [%] | PhKγ2(h) % activity (PhKγ2(h)) [%] | Rse(h) % activity (Rse(h)) [%] | EGFR(T790M,L858R)(h) % activity (EGFR(T790M,L858R)(h)) [%] | HIPK2(h) % activity (HIPK2(h)) [%]
HRRIKAWLKKIKALARQLGVAA (Mammalian) [MMI-0500] | 49 | 4 | −1 | 238 | 16 | 63 | 53 | 38
FAKLAARLYRKALARQLGVAA [MMI-0300] | 82 | 45 | 56 | 205 | 46 | 88 | 85 | 73
YARAAARQARAKALNRQLGVA (Mammalian) [MMI-0200] | 98 | 95 |  | 132 | 86 | 88 | 108 | 
KAFAKLAARLYRKALARQLGVAA [MMI-0400] | 85 | 36 | 98 | 202 | 38 | 89 | 78 | 90
